{"source": "the RNAGym collection of RNA variant scans (doi:10.1073/pnas.2313332121)", "parents": {"B1": {"name": "TPR 5TU (parent)", "chain": "GGAUCUUCUCGAUCUAACAAAAAAGACAAAUCUGCCACAAAGCUUGAGAGCAUCUUCGGAUGCAGAGGCGGCAGCCUUCGGUGGCGCGAUAGCGCCAACGUUCUCAACUAUGACACGCAAAACGCGUGCUCCGUUGAAUGGAGUUUAUCAUG"}}, "note": "Variants at the floor of the assay were thinned out.", "data": [{"variants_of": "B1", "experiment": "polymerase ribozyme fitness, log enrichment relative to wild type (log ratio); higher = more active; in vitro selection for triplet polymerase activity", "in_short": "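The heterodimeric triplet polymerase ribozyme's subunits were each mutagenized into PCR-built libraries and transcribed. Every library was selected once, in triplicate, by annealing with a biotinylated primer, the partner subunit and triplets, incubating frozen at −7 °C, gel-excising extended constructs, capturing on streptavidin beads and running RT-PCR. Input and output libraries were Illumina-sequenced, with genotypes kept only at ≥10 input reads and ≥1 read per output. Fitness, from inverse-variance-weighted replicate averages, is the base-2 logarithm of genotype enrichment over wild-type enrichment.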", "values": [{"variant": "GGAUCUUCUCGAUCUAACAAAAAAGACAAAUCUGCCACAAAGCUUGAGAGCAUCUUCGGAUGCAGAGGCGGCAGCCUUCGGUGGCGCGAUAGCGCCAACGUUCUCAACUAUGACUCGCAAAACGCGUGCUCCGUUGAAUGGAGUUUAGCAUG", "polymerase ribozyme fitness (log ratio)": -4.15}, {"variant": "GGAUCUUCUCGAUCUAACAAAAAAGACAAAUCUGCCACAAAGCUUGAGAGCAUCUUCGGAUGCAGAGGCGGCAGCCUUCGGUGGCGCGAUAGCGCCAACGUUCUCAACUAUGACGAGCAAAACGCGGGCUCCGUUGAAUGGAGUUUAUCAUG", "polymerase ribozyme fitness (log ratio)": "≤ -4.2"}, {"variant": "GGAUCUUCUCGAUCUAACAAAAAAGACAAAUCUGCCACAAAGCUUGAGAGCAUCUUCGGAUGCAGAGGCGGCAGCCUUCGGUGGCGCGAUAGCGCCAACGUUCUCAACUAUGACUCGCAAAACGCAUGCUCCGUUGAAUGGAGUUUAUCAUG", "polymerase ribozyme fitness (log ratio)": -3.35}, {"variant": "GGAUCUUCUCGAUCUAACAAAAAAGACAAAUCUGCCACAAAGCUUGAGAGCAUCUUCGGAUGCAGAGGCGGCAGCCUUCGGUGGCGCGAUAGCGCCAACGUUCUCAACUAUGACAGGCUAAACGCGUGCUCCGUUGAAUGGAGUUUAUCAUG", "polymerase ribozyme fitness (log ratio)": 0.403}, {"variant": "GGAUCUUCUCGAUCUAACAAAAAAGACAAAUCUGCCACAAAGCUUGAGAGCAUCUUCGGAUGCAGAGGCGGCAGCCUUCGGUGGCGCGAUAGCGCCAACGUUCUCAACUAUGACUCGCAAAACGCGUGCUCCGUUGAAUGGAGUUGAUCAUG", "polymerase ribozyme fitness (log ratio)": -2.23}, {"variant": "GGAUCUUCUCGAUCUAACAAAAAAGACAAAUCUGCCACAAAGCUUGAGAGCAUCUUCGGAUGCAGAGGCGGCAGCCUUCGGUGGCGCGAUAGCGCCAACGUUCUCAACUAUGACAGGCAAAACGCGUGCUCCGUUGAAUGGAGUUGAUCAUG", "polymerase ribozyme fitness (log ratio)": -0.306}, {"variant": "GGAUCUUCUCGAUCUAACAAAAAAGACAAAUCUGCCACAAAGCUUGAGAGCAUCUUCGGAUGCAGAGGCGGCAGCCUUCGGUGGCGCGAUAGCGCCAACGUUCUCAACUAUGACUCGCGAAACGCGUGCUCCGUUGAGUGGAGUUUAUCAUG", "polymerase ribozyme fitness (log ratio)": "≤ -4.2"}, {"variant": "GGAUCUUCUCGAUCUAACAAAAAAGACAAAUCUGCCACAAAGCUUGAGAGCAUCUUCGGAUGCAGAGGCGGCAGCCUUCGGUGGCGCGAUAGCGCCAACGUUCUCAACUAUGACAGGCAAAACGCGUGCUCCGUUGAAUCGAGUUUAUCAUG", "polymerase ribozyme fitness (log ratio)": -3.81}, {"variant": "GGAUCUUCUCGAUCUAACAAAAAAGACAAAUCUGCCACAAAGCUUGAGAGCAUCUUCGGAUGCAGAGGCGGCAGCCUUCGGUGGCGCGAUAGCGCCAACGUUCUCAACUAUGACGCGCAAAACACGUGCUCCGUUGAAUGGAGUUUAUCGUG", "polymerase ribozyme fitness (log ratio)": -4}, {"variant": "GGAUCUUCUCGAUCUAACAAAAAAGACAAAUCUGCCACAAAGCUUGAGAGCAUCUUCGGAUGCAGAGGCGGCAGCCUUCGGUGGCGCGAUAGCGCCAACGUUCUCAACUAUGACUCGCAAAACGCGUGCUCCGUUGAAUGGAGUUUAUCAUG", "polymerase ribozyme fitness (log ratio)": -1.48}, {"variant": "GGAUCUUCUCGAUCUAACAAAAAAGACAAAUCUGCCACAAAGCUUGAGAGCAUCUUCGGAUGCAGAGGCGGCAGCCUUCGGUGGCGCGAUAGCGCCAACGUUCUCAACUAUGACGCGCAAAACGCGUGCUCCGUUGAAUGGAGUUUAUCAUG", "polymerase ribozyme fitness (log ratio)": -1}, {"variant": "GGAUCUUCUCGAUCUAACAAAAAAGACAAAUCUGCCACAAAGCUUGAGAGCAUCUUCGGAUGCAGAGGCGGCAGCCUUCGGUGGCGCGAUAGCGCCAACGUUCUCAACUAUGACUCGCAAAACGCGUGCUCCGUUGAAUGCAGUUUAUCAUG", "polymerase ribozyme fitness (log ratio)": -3.37}, {"variant": "GGAUCUUCUCGAUCUAACAAAAAAGACAAAUCUGCCACAAAGCUUGAGAGCAUCUUCGGAUGCAGAGGCGGCAGCCUUCGGUGGCGCGAUAGCGCCAACGUUCUCAACUAUGACAAGCAAAACGCGUGCUCCGUUGAAUGGAGUUUAUCACG", "polymerase ribozyme fitness (log ratio)": -4.09}, {"variant": "GGAUCUUCUCGAUCUAACAAAAAAGACAAAUCUGCCACAAAGCUUGAGAGCAUCUUCGGAUGCAGAGGCGGCAGCCUUCGGUGGCGCGAUAGCGCCAACGUUCUCAACUAUGACGCGCAAAACGCGUGCUCCGUUGAAUGAAGUUUAUCAUG", "polymerase ribozyme fitness (log ratio)": -0.426}, {"variant": "GGAUCUUCUCGAUCUAACAAAAAAGACAAAUCUGCCACAAAGCUUGAGAGCAUCUUCGGAUGCAGAGGCGGCAGCCUUCGGUGGCGCGAUAGCGCCAACGUUCUCAACUAUGACGCGCAAAACGCGUGCUCCGUAGAAUGGAGUUUAUCAUG", "polymerase ribozyme fitness (log ratio)": -2.48}, {"variant": "GGAUCUUCUCGAUCUAACAAAAAAGACAAAUCUGCCACAAAGCUUGAGAGCAUCUUCGGAUGCAGAGGCGGCAGCCUUCGGUGGCGCGAUAGCGCCAACGUUCUCAACUAUGACAGGCAUAACGCGUGCUCCGUUGAAUGGAGUUUAUCAUG", "polymerase ribozyme fitness (log ratio)": 0.554}, {"variant": "GGAUCUUCUCGAUCUAACAAAAAAGACAAAUCUGCCACAAAGCUUGAGAGCAUCUUCGGAUGCAGAGGCGGCAGCCUUCGGUGGCGCGAUAGCGCCAACGUUCUCAACUAUGACUCGCAAAACGCGUGCUCCGCUGAAUGGAGUUUAUCAUG", "polymerase ribozyme fitness (log ratio)": -1.19}, {"variant": "GGAUCUUCUCGAUCUAACAAAAAAGACAAAUCUGCCACAAAGCUUGAGAGCAUCUUCGGAUGCAGAGGCGGCAGCCUUCGGUGGCGCGAUAGCGCCAACGUUCUCAACUAUGACAGGCAAAACGCGUGCUCCGUUGAAUGGAGUUUAUCAUG", "polymerase ribozyme fitness (log ratio)": 0.655}, {"variant": "GGAUCUUCUCGAUCUAACAAAAAAGACAAAUCUGCCACAAAGCUUGAGAGCAUCUUCGGAUGCAGAGGCGGCAGCCUUCGGUGGCGCGAUAGCGCCAACGUUCUCAACUAUGACAAGCAAAACGCGUGCUCCGUUGAAUGGAGUUUAUCAUG", "polymerase ribozyme fitness (log ratio)": 1.34}]}]}
